Data published in publication PMC12548284, “SIK2-mediated phosphorylation of GABARAPL2 facilitates autophagosome–lysosome fusion and rescues neurodegeneration in an Alzheimer’s disease model” (Translational Neurodegeneration, 2025).

Biological target: T1, GST-GABARAPL2 (UniProt P60520 1-117)
T1 construct: GABARAPL2 of the bought GST fusion protein; source: bought: Proteintech (Ag1155)
Experiment: pull-down; competitive GST pull-down: GST-GABARAPL2 on glutathione-conjugated Sepharose beads, SIK2 protein in solution, LIR peptide at 0, 5, 10, 20, 40 μmol/L; immunoblot
Details: both partners purified

T1 sequence (P60520 whole entry, the tested form may be a part): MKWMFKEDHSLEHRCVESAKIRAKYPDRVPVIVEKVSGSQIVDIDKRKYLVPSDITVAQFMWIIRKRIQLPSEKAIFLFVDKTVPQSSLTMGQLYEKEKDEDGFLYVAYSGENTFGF

B1: LC3-interacting region (LIR) 326–333 (FAAIYFLL) peptide (peptide)
peptide: FAAIYFLL
notes: SIK2 residues 326-333, the canonical LIR motif within 290-550; also called LIR peptide; source: synthetic peptide; bought: Sangon Biotech
binding result: binds
